This assay deals with SARS-CoV-2 Spike protein on live virus (SARS-CoV-2, UniProt P0DTC2). The assay is described as follows: cell-based or functional assay.

B1: ESBP2 (peptide)
peptide: ESLSLSLSLSLSLEGSALEEGQLKTFLDKFMHELEDLLYQLAL
For B1, the “IC50 of reduction in live-virus infectivity” value was less than 0.01 µM.

The record behind these values is patent US20210388031A1 (New Jersey Institute of Technology, published 2021).
